From publication PMC5608694, “The crystal structure of the regulatory domain of the human sodium-driven chloride/bicarbonate exchanger” (Scientific Reports, 2017)

Target: the molecule itself
Experiment: SEC; 1 mg of ntcNDCBE on Superdex 200 10/300 GL; eluted at 14.2 mL, compared with molecular weight standards

B1: truncated (ΔVR1) N-terminal cytoplasmic domain of human sodium-driven chloride/bicarbonate exchanger NDCBE-D (domain or fragment, UniProt Q2Y0W8-4 40-344, looked up)
chain: DTPSQRVQFILGTEEDEEHVPHELFTELDEICMKEGEDAEWKETARWLKFEEDVEDGGERWSKPYVATLSLHSLFELRSCLINGTVLLDMHANSIEEISDLILDQQELSSDLNDSMRVKVREALLKKHHHQNEKKRNNLIPIVRSFAEVGKKQSDPHLMDKHGQTVSPQSVPTTNLEVKNGVNCEHSPVDLSKVDLHFMKKIPTGAEASNVLVGEVDILDRPIVAFVRLSPAVLLSGLTEVPIPTRFLFILLGPVGKGQQYHEIGRSMATIMTDEIFHDVAYKAKERDDLLAGIDEFLDQVTVLP
notes: human NDCBE (SLC4A8) isoform D, N-terminal cytoplasmic core domain, amino acids 40-344 (made by mutagenesis from the 40-425 construct); numbers count on: isoform D (Q2Y0W8-4); Forms a homodimer in the crystal and in solution; Codon-optimised gene in pET-M11; His tag removed with TEV protease; also called ntcNDCBE; regulatory N-terminal domain of human NDCBE; source: E. coli BL21 Gold, purified …
  stoichiometry N: 2
